This note sets out measurements from PMC4288178, “CRISPR RNA binding and DNA target recognition by purified Cascade complexes from Escherichia coli”.

For series [1], the target named is T1, Cascade- (crRNA-free Cse1-Cse2-Cas7-Cas5-Cas6e) (Escherichia coli (K12; expressed in …, UniProt Q46901;P76632;Q46899;Q46898;Q46897 1-502;1-160;1-363;1-224;1-199).
T1 sequence 1: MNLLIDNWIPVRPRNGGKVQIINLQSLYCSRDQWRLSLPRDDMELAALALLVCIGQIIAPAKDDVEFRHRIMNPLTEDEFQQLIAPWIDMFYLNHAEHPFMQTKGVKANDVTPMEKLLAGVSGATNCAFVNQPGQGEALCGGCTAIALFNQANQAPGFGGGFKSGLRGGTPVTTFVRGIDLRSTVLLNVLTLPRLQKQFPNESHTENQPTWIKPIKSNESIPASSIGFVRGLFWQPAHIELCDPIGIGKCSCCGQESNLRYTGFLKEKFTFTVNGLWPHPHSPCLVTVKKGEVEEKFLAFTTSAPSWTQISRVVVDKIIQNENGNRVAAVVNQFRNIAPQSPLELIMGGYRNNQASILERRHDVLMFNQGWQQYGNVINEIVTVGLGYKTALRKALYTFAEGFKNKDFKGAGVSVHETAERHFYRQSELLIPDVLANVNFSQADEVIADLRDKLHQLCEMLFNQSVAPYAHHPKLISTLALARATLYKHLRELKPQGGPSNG
T1 sequence 2: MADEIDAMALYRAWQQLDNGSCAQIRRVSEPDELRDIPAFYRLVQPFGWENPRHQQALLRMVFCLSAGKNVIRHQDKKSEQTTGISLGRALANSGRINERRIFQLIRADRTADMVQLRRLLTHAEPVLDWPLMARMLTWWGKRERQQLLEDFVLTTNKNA
T1 sequence 3: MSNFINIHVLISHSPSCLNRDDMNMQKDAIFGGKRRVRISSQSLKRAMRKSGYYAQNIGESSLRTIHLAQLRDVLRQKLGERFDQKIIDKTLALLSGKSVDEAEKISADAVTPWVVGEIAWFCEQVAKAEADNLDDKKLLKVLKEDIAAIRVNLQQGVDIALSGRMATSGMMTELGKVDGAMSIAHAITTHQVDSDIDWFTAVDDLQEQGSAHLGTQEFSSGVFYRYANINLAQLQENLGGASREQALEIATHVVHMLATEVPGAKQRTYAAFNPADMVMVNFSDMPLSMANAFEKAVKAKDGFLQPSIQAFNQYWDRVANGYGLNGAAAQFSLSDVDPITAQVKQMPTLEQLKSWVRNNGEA
T1 sequence 4: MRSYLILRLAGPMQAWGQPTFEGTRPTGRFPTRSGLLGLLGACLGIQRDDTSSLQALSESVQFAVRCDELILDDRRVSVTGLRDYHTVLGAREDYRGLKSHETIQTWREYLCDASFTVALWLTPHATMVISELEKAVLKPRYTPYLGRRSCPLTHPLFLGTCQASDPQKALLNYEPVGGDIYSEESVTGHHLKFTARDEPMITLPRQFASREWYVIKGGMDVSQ
T1 sequence 5: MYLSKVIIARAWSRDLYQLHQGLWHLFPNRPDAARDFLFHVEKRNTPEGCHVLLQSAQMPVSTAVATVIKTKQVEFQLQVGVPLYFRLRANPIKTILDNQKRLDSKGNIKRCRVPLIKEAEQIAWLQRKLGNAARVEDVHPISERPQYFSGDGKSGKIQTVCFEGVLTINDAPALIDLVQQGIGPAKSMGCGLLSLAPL
Nature of the series: EMSA; loaded with crRNA1; EMSA: 20 mM Tris-HCl pH 8, 20 mM NaCl, 10 nM 32P probe, 30 min at 30 or 37 C, 6% native PAGE; loading 10 min at 30 C with crRNA (0.5 uM in Fig 3). Kd values are printed only in Fig 5A (not in the material). The conditions noted are these: protein: recombinant; tags: N-terminal 6His on Cse1 (CasA); copies: 1;2;6;1;1; label: DNA 5'-32P; guide + target strand.

Series [2] concerns the target T2, Cascade+ (Cascade co-expressed with g8 crRNA) (Escherichia coli (K12; expressed in …, UniProt Q46901;P76632;Q46899;Q46898;Q46897 1-502;1-160;1-363;1-224;1-199).
T2 sequence 1: T1 sequence 1
T2 sequence 2: T1 sequence 2
T2 sequence 3: T1 sequence 3
T2 sequence 4: T1 sequence 4
T2 sequence 5: T1 sequence 5
Briefly: EMSA; EMSA: 20 mM Tris-HCl pH 8, 20 mM NaCl, 10 nM 32P probe, 30 min at 30 or 37 C, 6% native PAGE; loading 10 min at 30 C with crRNA (0.5 uM in Fig 3). Kd values are printed only in Fig 5A (not in the material). Conditions: protein: recombinant; tags: N-terminal 6His on Cse1 (CasA); copies: 1;2;6;1;1; label: DNA 5'-32P; guide + target strand.

Series [3] addresses T1, Cascade- (crRNA-free …). Described as above. Conditions: protein: recombinant, tags: N-terminal 6His on Cse1 (CasA), copies: 1;2;6;1;1.
Series [4] deals with T1, Cascade- (crRNA-free …). Nature of the series: EMSA; affinity slightly lower than crRNA1; EMSA: 20 mM Tris-HCl pH 8, 20 mM NaCl, 10 nM 32P probe, 30 min at 30 or 37 C, 6% native PAGE; loading 10 min at 30 C with crRNA (0.5 uM in Fig 3). Kd values are printed only in Fig 5A (not in the material). The conditions noted are these: protein: recombinant, tags: N-terminal 6His on Cse1 (CasA), copies: 1;2;6;1;1.

In series [5] the target is T1, Cascade- (crRNA-free …). Nature of the series: EMSA; detectable binding; EMSA: 20 mM Tris-HCl pH 8, 20 mM NaCl, 10 nM 32P probe, 30 min at 30 or 37 C, 6% native PAGE; loading 10 min at 30 C with crRNA (0.5 uM in Fig 3). Kd values are printed only in Fig 5A (not in the material). The conditions noted are these: protein: recombinant; tags: N-terminal 6His on Cse1 (CasA); copies: 1;2;6;1;1; label: 5'-32P.

The mark [6] stands for this setting: label: DNA 5'-32P, guide + blunt duplex.

Numbering of substitutions follows the chain as printed.

B1: g8 crRNA + g8 ssDNA (mixed)
RNA: AUAAACCGCUGUCUUUCGCUGCUGAGGGUGACGAUCCGCCGAGUUCCCCGCGCCAGCGGGG
DNA: CAGGGAGTTAAAGGCCGCTTTTGCGGGATCGTCACCCTCAGCAGCGAAAGACAGCATCGGAACGAGGGTAGCAACGGCT
Turning to B1, the binding result in series [1] and in series [2] was “binds” throughout.

B2: crRNA7 (-7/+5) + g8 dsDNA (mixed)
RNA: UAAACCGCUGUCUUUCGCUGCUGAGGGUGACGAUCCGCCGAGUU
DNA 1: B1 DNA
DNA 2: AGCCGTTGCTACCCTCGTTCCGATGCTGTCTTTCGCTGCTGAGGGTGACGATCCCGCAAAAGCGGCCTTTAACTCCCTG
Regarding B2, in series [3] (setting [6]), the binding result is reported as “no binding”.

B3: crRNA7 (-8/+1A) + g8 dsDNA (mixed)
RNA: AUAAACCGCUGUCUUUCGCUGCUGAGGGUGACGAUCCGCCA
DNA 1: B1 DNA
DNA 2: B2 DNA 2
Regarding B3, in series [3] (setting [6]), the binding result is recorded as “binds”.

B4: crRNA7 (-8/+1C) + g8 dsDNA (mixed)
RNA: B3 RNA with A41C
DNA 1: B1 DNA
DNA 2: B2 DNA 2
For B4, the binding result in series [3] (setting [6]) is on record as “binds”.

B5: crRNA7 (-6/+5) + g8 dsDNA (mixed)
RNA: AAACCGCUGUCUUUCGCUGCUGAGGGUGACGAUCCGCCGAGUU
DNA 1: B1 DNA
DNA 2: B2 DNA 2
Consider B5, for which the binding result in series [3] (setting [6]) is “no binding”.

B6: crRNA7 (-8/+1U) + g8 dsDNA (mixed)
RNA: B3 RNA with A41U
DNA 1: B1 DNA
DNA 2: B2 DNA 2
In the case of B6, in series [3] (setting [6]), the binding result is listed as “binds”.

B7: poly-C handle crRNA + g8 dsDNA (mixed)
RNA: CCCCCCCCCUGUCUUUCGCUGCUGAGGGUGACGAUCCGCCGAGUU
DNA 1: B1 DNA
DNA 2: B2 DNA 2
On to B7, for which the binding result in series [3] (setting [6]) is recorded as “no binding”.

B8: crRNA7 (-8/+1G) + g8 dsDNA (mixed)
RNA: B3 RNA with A41G
DNA 1: B1 DNA
DNA 2: B2 DNA 2
As to B8, the binding result in series [3] (setting [6]) is on record as “binds”.

B9: crRNA2 + g8 dsDNA (mixed)
RNA: B1 RNA
DNA 1: B1 DNA
DNA 2: B2 DNA 2
modifications: no 2',3'-cyclic phosphate on crRNA
In the case of B9, in series [3] (setting [6]), the binding result is “binds”.

B10: poly-A handle crRNA9 + g8 dsDNA (mixed)
RNA: AAAAAAAACUGUCUUUCGCUGCUGAGGGUGACGAUCCGCCGAGUU
DNA 1: B1 DNA
DNA 2: B2 DNA 2
On to B10, for which the binding result in series [3] (setting [6]) is “no binding”.

B11: crRNA7 (-8/+5) + g8 dsDNA (mixed)
RNA: B10 RNA with A2U, A6C, A7C, A8G
DNA 1: B1 DNA
DNA 2: B2 DNA 2
As for B11, the binding result in series [4] (setting [6]) is “binds”.

B12: crRNA2 (-8/+21), no cyclic phosphate (structured_RNA)
RNA: B1 RNA
modifications: no 2',3'-cyclic phosphate
B12: in series [3] (label: 5'-32P, 3' handle hairpin), the binding result is listed as “binds”.

As for AUAAACCGCUGUCUUUCGCUGCUGAGGGUGACGAUCCGCCGAGUUCCCC (ssRNA) [crRNA13 (-8/+9)], the binding result in series [5] is “binds”.

B13: crRNA12 (-8/+11) (ssRNA)
RNA: AUAAACCGCUGUCUUUCGCUGCUGAGGGUGACGAUCCGCCGAGUUCCCCGC
On to B13, for which the binding result in series [5] is recorded as “binds”.

B14: crRNA11 (-8/+18) (ssRNA)
RNA: AUAAACCGCUGUCUUUCGCUGCUGAGGGUGACGAUCCGCCGAGUUCCCCGCGCCAGCG
Consider B14, for which the binding result in series [5] is recorded as “binds”.

On to AUAAACCGCUGUCUUUCGCUGCUGAGGGUGACGAUCCGCCGAGUU (ssRNA) [crRNA7 (-8/+5)], for which the binding result in series [4] (label: 5'-32P) is recorded as “binds”.
